{"source": "patent US20170334958A1", "binders": {"B1": {"name": "T14.06 (designed binder)", "chain": "VSDVPRDLEVVAATPTSLLISWTRTNASTRYYRITYGETGGNSPVQEFTVPNFWWTATISGLKPGVDYTITVYAVTSPDETSAYSEPISINYRT"}}, "molecular_target": "tumor necrosis factor-α (TNF-α) (human) (UniProt P01375)", "sequence (P01375 77-233 limits assumed)": "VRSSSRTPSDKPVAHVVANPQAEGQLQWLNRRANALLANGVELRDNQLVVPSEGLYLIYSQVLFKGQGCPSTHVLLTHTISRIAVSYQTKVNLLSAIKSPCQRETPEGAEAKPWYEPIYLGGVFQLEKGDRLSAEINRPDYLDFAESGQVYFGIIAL", "experiment": "35S free protein + biotin-TNF-α in solution, biotin capture membrane, phosphorimaging"}
{"binder": "B1", "values": [{"measurement": "Kd", "result": 1.4, "unit": "nM"}]}
